Experimental data from US20110263454A1, “Methods of Identifying Functional Characteristics of Promoters, Transcription Modifying Proteins and Transcription Modulating Agents” (Salk Institute for Biological Studies, priority 2008, published 2011).

B1: ERR3: Estrogen Related Receptor γ (NR3B3, ERRg), cDNA driver (protein, UniProt P62508 1-458, looked up)
Estrogen-related receptor …: MDSVELCLPESFSLHYEEELLCRMSNKDRHIDSSCSSFIKTEPSSPASLTDSVNHHSPGGSSDASGSYSSTMNGHQNGLDSPPLYPSAPILGGSGPVRKLYDDCSSTIVEDPQTKCEYMLNSMPKRLCLVCGDIASGYHYGVASCEACKAFFKRTIQGNIEYSCPATNECEITKRRRKSCQACRFMKCLKVGMLKEGVRLDRVRGGRQKYKRRIDAENSPYLNPQLVQPAKKPYNKIVSHLLVAEPEKIYAMPDPTVPDSDIKALTTLCDLADRELVVIIGWAKHIPGFSTLSLADQMSLLQSAWMEILILGVVYRSLSFEDELVYADDYIMDEDQSKLAGLLDLNNAILQLVKKYKSMKLEKEEFVTLKAIALANSDSMHIEDVEAVQKLQDVLHEALQDYEAGQHMEDPRRAGKMLMTLPLLRQTSTKAVQHFYNIKLEGKVPMHKLFLEMLEAKV
B2: ERR2: Estrogen Related Receptor β (NR3B2, ERRb), cDNA driver (protein, UniProt O95718 1-433, looked up)
Steroid hormone receptor ERR2: MSSDDRHLGSSCGSFIKTEPSSPSSGIDALSHHSPSGSSDASGGFGLALGTHANGLDSPPMFAGAGLGGTPCRKSYEDCASGIMEDSAIKCEYMLNAIPKRLCLVCGDIASGYHYGVASCEACKAFFKRTIQGNIEYSCPATNECEITKRRRKSCQACRFMKCLKVGMLKEGVRLDRVRGGRQKYKRRLDSESSPYLSLQISPPAKKPLTKIVSYLLVAEPDKLYAMPPPGMPEGDIKALTTLCDLADRELVVIIGWAKHIPGFSSLSLGDQMSLLQSAWMEILILGIVYRSLPYDDKLVYAEDYIMDEEHSRLAGLLELYRAILQLVRRYKKLKVEKEEFVTLKALALANSDSMYIEDLEAVQKLQDLLHEALQDYELSQRHEEPWRTGKLLLTLPLLRQTAAKAVQHFYSVKLQGKVPMHKLFLEMLEAKV
B3: CTF1: COUP-TF1 (NR2F1), cDNA driver (protein, UniProt P10589 1-423, looked up)
COUP transcription factor 1: MAMVVSSWRDPQDDVAGGNPGGPNPAAQAARGGGGGAGEQQQQAGSGAPHTPQTPGQPGAPATPGTAGDKGQGPPGSGQSQQHIECVVCGDKSSGKHYGQFTCEGCKSFFKRSVRRNLTYTCRANRNCPIDQHHRNQCQYCRLKKCLKVGMRREAVQRGRMPPTQPNPGQYALTNGDPLNGHCYLSGYISLLLRAEPYPTSRYGSQCMQPNNIMGIENICELAARLLFSAVEWARNIPFFPDLQITDQVSLLRLTWSELFVLNAAQCSMPLHVAPLLAAAGLHASPMSADRVVAFMDHIRIFQEQVEKLKALHVDSAEYSCLKAIVLFTSDACGLSDAAHIESLQEKSQCALEEYVRSQYPNQPSRFGKLLLRLPSLRTVSSSVIEQLFFVRLVGKTPIETLIRDMLLSGSSFNWPYMSIQCS
B4: TR4: Testicular Orphan Nuclear Receptor 4 (NR2C2), cDNA driver (protein, UniProt P49116 1-596, looked up)
Nuclear receptor subfamily 2 …: MTSPSPRIQIISTDSAVASPQRIQIVTDQQTGQKIQIVTAVDASGSPKQQFILTSPDGAGTGKVILASPETSSAKQLIFTTSDNLVPGRIQIVTDSASVERLLGKTDVQRPQVVEYCVVCGDKASGRHYGAVSCEGCKGFFKRSVRKNLTYSCRSNQDCIINKHHRNRCQFCRLKKCLEMGMKMESVQSERKPFDVQREKPSNCAASTEKIYIRKDLRSPLIATPTFVADKDGARQTGLLDPGMLVNIQQPLIREDGTVLLATDSKAETSQGALGTLANVVTSLANLSESLNNGDTSEIQPEDQSASEITRAFDTLAKALNTTDSSSSPSLADGIDTSGGGSIHVISRDQSTPIIEVEGPLLSDTHVTFKLTMPSPMPEYLNVHYICESASRLLFLSMHWARSIPAFQALGQDCNTSLVRACWNELFTLGLAQCAQVMSLSTILAAIVNHLQNSIQEDKLSGDRIKQVMEHIWKLQEFCNSMAKLDIDGYEYAYLKAIVLFSPDHPGLTSTSQIEKFQEKAQMELQDYVQKTYSEDTYRLARILVRLPALRLMSSNITEELFFTGLIGNVSIDSIIPYILKMETAEYNGQITGASL
B5: Erb: Estrogen Receptor β (NR3A2, ERb), cDNA driver (protein, UniProt Q92731 1-530, looked up)
Estrogen receptor beta: MDIKNSPSSLNSPSSYNCSQSILPLEHGSIYIPSSYVDSHHEYPAMTFYSPAVMNYSIPSNVTNLEGGPGRQTTSPNVLWPTPGHLSPLVVHRQLSHLYAEPQKSPWCEARSLEHTLPVNRETLKRKVSGNRCASPVTGPGSKRDAHFCAVCSDYASGYHYGVWSCEGCKAFFKRSIQGHNDYICPATNQCTIDKNRRKSCQACRLRKCYEVGMVKCGSRRERCGYRLVRRQRSADEQLHCAGKAKRSGGHAPRVRELLLDALSPEQLVLTLLEAEPPHVLISRPSAPFTEASMMMSLTKLADKELVHMISWAKKIPGFVELSLFDQVRLLESCWMEVLMMGLMWRSIDHPGKLIFAPDLVLDRDEGKCVEGILEIFDMLLATTSRFRELKLQHKEYLCVKAMILLNSSMYPLVTATQDADSSRKLAHLLNAVTDALVWVIAKSGISSQQQSMRLANLLMLLSHVRHASNKGMEHLLNMKCKNVVPVYDLLLEMLNAHVLRGCKSSITGSECSPAEDSKSKEGSQNPQSQ

Key:
hPPARg2 promoter = experiment: NHR-promoter luciferase screen, hPPARg2 promoter; assay type: cell-based, human; conditions: for Luc. act., normalized to lacZ / Normalized Luc. act., normalized to control: PPARG2 promoter, hormone receptor with or without its ligand; for Normalized Luc. act., normalized to control: relative to control; for Results of assays of transcription factor (+/- ligand) with hPPARg2: Table 6d, luciferase activity relative to control (control = 1.00)
Method in brief: (§1)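 CV-1 cells were co-transfected with 50 ng NHR (homodimer or NHR/RXR heterodimer), 100 ng promoter-luciferase construct and 50 ng LacZ. Luciferase was normalized to LacZ and to a no-NHR/no-ligand control.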

hIRF7 promoter = experiment: NHR-promoter luciferase screen, hIRF7 promoter; assay type: cell-based, human; conditions: for Normalized Luc. act., normalized to control / Luc. act., normalized to lacZ: IRF7 promoter reporter; for Normalized Luc. act., normalized to control: HR without or with its ligand, relative to control; for Luc. act., normalized to lacZ: hormone receptor (HR) without or with its ligand; for hIRF7 promoter reporter activity: transcription factor +/- ligand, control = 1.00
Method in brief: as §1

mAdiponectin promoter = experiment: NHR-promoter luciferase screen, mAdiponectin promoter; assay type: cell-based, mouse; conditions: for Luc. act., normalized to lacZ / Normalized Luc. act., normalized to control: Adiponectin, HR component without or with its ligand; for mAdiponectin promoter reporter activity: transcription factor +/- ligand, control = 1.00
Method in brief: as §1

hG6PD promoter = experiment: NHR-promoter luciferase screen, hG6PD promoter; assay type: cell-based, human; conditions: for Luc. act., normalized to lacZ / Normalized Luc. act., normalized to control: G6PD promoter reporter, co-transfected HR, without or with its ligand; for Normalized Luc. act., normalized to control: relative to control; for luciferase activity normalized to lacZ activity and to a control, hG6PD: hG6PD promoter-luciferase, CV-1 cells, NHR +/- ligand, control = 1.00
Method in brief: as §1

hPPARg1 promoter = experiment: NHR-promoter luciferase screen, hPPARg1 promoter; assay type: cell-based, human; conditions: for Luc. act., normalized to lacZ / Normalized Luc. act., normalized to control: PPARG1 promoter, hormone receptor with or without its ligand; for Normalized Luc. act., normalized to control: relative to control; for Results of assays of transcription factor (+/- ligand) with hPPARg1: Table 6d, luciferase activity relative to control (control = 1.00)
Method in brief: as §1

mPgc1b promoter = experiment: NHR-promoter luciferase screen, mPgc1b promoter; assay type: cell-based, mouse; conditions: for Luc. act., normalized to lacZ / Normalized Luc. act., normalized to control: PGC1b promoter reporter, co-transfected HR, without or with its ligand; for Normalized Luc. act., normalized to control: relative to control; for luciferase activity normalized to lacZ activity and to a control, mPgc1b: mPgc1b promoter-luciferase, CV-1 cells, NHR +/- ligand, control = 1.00
Method in brief: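 CV-1 cells co-transfected with NHR homodimer or NHR/RXR heterodimer (pcDNA3.1, C-terminal V5H6 tag), promoter-luciferase construct and LacZ transfection control. Orphan receptors screened without ligand. Luciferase normalized to LacZ and to no-NHR/no-ligand control.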

Row | Molecule | Luc. act., normalized to lacZ (hPPARg2 promoter) | Normalized Luc. act., normalized to control (hPPARg2 promoter) | Results of assays of transcription factor (+/- ligand) with hPPARg2 (hPPARg2 promoter) | Normalized Luc. act., normalized to control (hIRF7 promoter) | Luc. act., normalized to lacZ (hIRF7 promoter) | hIRF7 promoter reporter activity (hIRF7 promoter) | Luc. act., normalized to lacZ (mAdiponectin promoter) | Normalized Luc. act., normalized to control (mAdiponectin promoter) | mAdiponectin promoter reporter activity (mAdiponectin promoter) | Luc. act., normalized to lacZ (hG6PD promoter) | Normalized Luc. act., normalized to control (hG6PD promoter) | luciferase activity normalized to lacZ activity and to a control, hG6PD (hG6PD promoter) | Luc. act., normalized to lacZ (hPPARg1 promoter) | Normalized Luc. act., normalized to control (hPPARg1 promoter) | Results of assays of transcription factor (+/- ligand) with hPPARg1 (hPPARg1 promoter) | Luc. act., normalized to lacZ (mPgc1b promoter) | Normalized Luc. act., normalized to control (mPgc1b promoter) | luciferase activity normalized to lacZ activity and to a control, mPgc1b (mPgc1b promoter)
1 | B1 | 2.1 | 1.0 | 1.04 | 2.1 | 55.2 | 2.10 | 69.7 | 1.1 | 1.11 | 63.7 | 1.7 | 1.70 | 63.7 | 0.9 | 0.92 | 20.1 | 1.7 | 1.70
2 | B2 | 3.2 | 1.6 | 1.59 | 2.3 | 60.5 | 2.30 | 55.3 | 0.9 | 0.88 | 59.1 | 1.6 | 1.58 | 59.1 | 0.9 | 0.86 | 12.7 | 1.1 | 1.07
3 | B3 | 1.4 | 0.7 | 0.71 | 0.9 | 24.8 | 0.94 | 118.7 | 1.9 | 1.89 | 39.7 | 1.1 | 1.06 | 39.7 | 0.6 | 0.58 | 6.7 | 0.6 | 0.57
4 | B4 | 3.3 | 1.6 | 1.65 | 1.9 | 48.8 | 1.85 | 296.1 | 4.7 | 4.71 | 66.2 | 1.8 | 1.77 | 66.2 | 1.0 | 0.96 | 17.3 | 1.5 | 1.46
5 | B5 | 2.3 | 1.1 | 1.13 | 1.4 | 37.5 | 1.42 | 68.6 | 1.1 | 1.09 | 45.3 | 1.2 | 1.21 | 45.3 | 0.7 | 0.66 | 9.2 | 0.8 | 0.77
